Target: heparan sulfate proteoglycan (HSPG) expressed on HeLa cells
Test: cell-based or functional assay

| Binder | fluorescence intensity of antibody located in the cytoplasm (confocal microscopy, HeLa cells, 1 µM, 6 h) [%] |
| --- | --- |
| TMab4-WYW (antibody, human IgG1, V domains shown) VH: EVQLVESGGGLVQPGGSLRLSCAASGYTFTSYVMHWVRQAPGKGLEWVSAINPYNDGNYYADSVKGRFTISRDNSRKTLYLQMNSLRAEDTAVYYCARGAYKRGYAMDYWGQGTTVTVSS VL: DLVMTQSPSSLSASVGDRVTITCKSSQSLFNSRTRKNYLAWYQQKPGKAPKLLIYWASTRESGVPSRFSGSGSGTDFTLTISSLQPEDFATYYCQQYWYWMYTFGQGTKVEIKR | 100 |
| CT03c (antibody, V domains shown) VH: EVQLVESGGGLVQPGGSLRLSCAASGYTFTSYVMHWVRQAPGKGLEWVSAINPYNDGNYYADSVKGRFTISRDNSRKTLYLQMNSLRAEDTAVYYCARGAYKRGYAMDYWGQGTTVTVSS VL: DLVMTQSPSSLSASVGDRVTITCKSSQSLLNSDDRNTYLAWYQQKPGKAPKLLIYWLSYRASGVPSRFSGSGSGTDFTLTISSLQPEDFATYFCQQYWYWMYTFGQGTKVEIKR | 31.8 |
| CT03a (antibody, V domains shown) VH: EVQLVESGGGLVQPGGSLRLSCAASGYTFTSYVMHWVRQAPGKGLEWVSAINPYNDGNYYADSVKGRFTISRDNSRKTLYLQMNSLRAEDTAVYYCARGAYKRGYAMDYWGQGTTVTVSS VL: DLVMTQSPSSLSASVGDRVTITCKSSQSLLNSRTRKNYLAWYQQKPGKAPKLLIYWASTRESGVPSRFSGSGSGTDFTLTISSLQPEDFATYFCQQYWYWMYTFGQGTKVEIKR | 40.1 |
| CT03d (antibody, V domains shown) VH: EVQLVESGGGLVQPGGSLRLSCAASGYTFTSYVMHWVRQAPGKGLEWVSAINPYNDGNYYADSVKGRFTISRDNSRKTLYLQMNSLRAEDTAVYYCARGAYKRGYAMDYWGQGTTVTVSS VL: DLVMTQSPSSLSASVGDRVTITCKSSQSLLNSRTGKTYLAWYQQKPGKAPKLLIYWASTRESGVPSRFSGSGSGTDFTLTISSLQPEDFATYFCQQYWYWMYTFGQGTKVEIKR | 26.3 |

Target: human recombinant integrin αvβ5 (αv extracellular domain-acidic leucine zipper-His×6 with β5 extracellular domain-basic leucine zipper) (human) (UniProt P06756)
Sequence (P06756 other isoform, or with tags, fused parts or gaps, chain 1 of 2): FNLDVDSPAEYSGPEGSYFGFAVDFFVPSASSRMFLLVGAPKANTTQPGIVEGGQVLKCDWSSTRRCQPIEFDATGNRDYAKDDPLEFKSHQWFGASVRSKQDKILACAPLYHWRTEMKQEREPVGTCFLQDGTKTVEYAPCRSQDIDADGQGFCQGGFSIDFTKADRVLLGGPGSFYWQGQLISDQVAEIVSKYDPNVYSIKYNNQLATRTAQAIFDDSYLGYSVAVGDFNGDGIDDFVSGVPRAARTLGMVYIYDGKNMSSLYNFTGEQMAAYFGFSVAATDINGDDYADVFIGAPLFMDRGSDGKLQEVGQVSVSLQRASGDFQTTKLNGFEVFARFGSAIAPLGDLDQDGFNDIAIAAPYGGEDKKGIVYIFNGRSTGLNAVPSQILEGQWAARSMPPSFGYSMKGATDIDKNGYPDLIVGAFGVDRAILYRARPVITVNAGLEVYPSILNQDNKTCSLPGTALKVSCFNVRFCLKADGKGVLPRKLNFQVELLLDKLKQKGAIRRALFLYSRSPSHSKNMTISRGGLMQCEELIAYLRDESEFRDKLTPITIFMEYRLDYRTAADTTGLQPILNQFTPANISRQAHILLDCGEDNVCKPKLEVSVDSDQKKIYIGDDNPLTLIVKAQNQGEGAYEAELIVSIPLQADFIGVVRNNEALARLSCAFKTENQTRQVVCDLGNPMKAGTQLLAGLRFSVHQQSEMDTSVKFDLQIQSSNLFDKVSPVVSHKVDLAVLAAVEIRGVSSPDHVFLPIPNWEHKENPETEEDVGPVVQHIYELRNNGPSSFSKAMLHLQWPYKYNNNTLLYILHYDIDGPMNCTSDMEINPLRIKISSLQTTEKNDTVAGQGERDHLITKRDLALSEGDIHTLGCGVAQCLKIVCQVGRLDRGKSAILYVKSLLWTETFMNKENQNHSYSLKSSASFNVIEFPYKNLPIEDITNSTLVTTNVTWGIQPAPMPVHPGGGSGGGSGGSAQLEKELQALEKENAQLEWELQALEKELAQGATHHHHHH
Sequence (chain, as listed by the source, chain 2 of 2): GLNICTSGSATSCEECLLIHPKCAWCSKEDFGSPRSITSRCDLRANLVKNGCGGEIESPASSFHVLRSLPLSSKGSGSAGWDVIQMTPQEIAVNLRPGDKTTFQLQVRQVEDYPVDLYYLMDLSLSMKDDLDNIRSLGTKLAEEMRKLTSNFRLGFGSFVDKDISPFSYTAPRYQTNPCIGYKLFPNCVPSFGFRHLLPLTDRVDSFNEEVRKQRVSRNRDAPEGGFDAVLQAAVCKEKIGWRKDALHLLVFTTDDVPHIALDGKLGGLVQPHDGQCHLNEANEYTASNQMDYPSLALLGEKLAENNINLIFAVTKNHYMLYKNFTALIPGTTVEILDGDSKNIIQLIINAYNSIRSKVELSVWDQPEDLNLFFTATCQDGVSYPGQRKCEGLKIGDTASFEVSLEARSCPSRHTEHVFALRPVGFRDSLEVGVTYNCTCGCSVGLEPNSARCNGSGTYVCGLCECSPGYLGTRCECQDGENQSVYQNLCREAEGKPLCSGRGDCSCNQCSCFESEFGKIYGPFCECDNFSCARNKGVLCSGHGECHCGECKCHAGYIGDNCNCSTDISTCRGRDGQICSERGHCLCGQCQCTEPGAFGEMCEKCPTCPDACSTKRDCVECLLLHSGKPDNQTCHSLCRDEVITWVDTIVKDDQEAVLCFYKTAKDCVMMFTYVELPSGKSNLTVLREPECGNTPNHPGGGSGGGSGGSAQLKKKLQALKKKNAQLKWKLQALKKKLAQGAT
Test: BLI (Octet), antibody captured on anti-human IgG Fc (AHC) biosensor, integrin αvβ5 3.1-100 nM as analyte, divalent cations

| Binder | Kd [nM] | koff [s⁻¹] | kon [M⁻¹ s⁻¹] |
| --- | --- | --- | --- |
| in4-Ras03 (antibody, part only; not given: RT22 heavy chain, light constant, V domains shown, not shown: another chain or arm of the molecule; a dimerising Fc or GST, chain 1: disulfide bond Cys6-Cys10 closes the in4 cyclic peptide) VL: DGVRQCRGDCFDGPLMGSSSNDIQMTQSPSSLSASVGDRVTITCKSSQSLLNSRDGKNYLAWYQQKPGKAPKLLIYWASTRESGVPSRFSGSGSGTDFTLTISSLQPEDFATYFCQQYWYWMYTFGQGTKVEIK | 2.06 | 0.000166 | 80600 |
| 5#2-Ras03 (antibody, part only; not given: RT22 heavy chain, constant regions, V domains shown, not shown: another chain or arm of the molecule; a dimerising Fc or GST; large carriers; small tags and cut ends, chain 1: disulfide bond Cys6-Cys14 closes the 5#2 cyclic peptide) VL: ASYNDCQSRGDTFCVADMGSSSNDIQMTQSPSSLSASVGDRVTITCKSSQSLLNSRDGKNYLAWYQQKPGKAPKLLIYWASTRESGVPSRFSGSGSGTDFTLTISSLQPEDFATYFCQQYWYWMYTFGQGTKVEIK | 2.63 | 0.00012 | 45500 |
| 5#3-Ras03 (antibody, part only; not given: RT22 heavy chain, constant regions, V domains shown, not shown: another chain or arm of the molecule; a dimerising Fc or GST; large carriers; small tags and cut ends, chain 1: disulfide bond Cys6-Cys16 closes the 5#3 cyclic peptide) VL: SRDETCTPRGDTFAICMGSSSNDIQMTQSPSSLSASVGDRVTITCKSSQSLLNSRDGKNYLAWYQQKPGKAPKLLIYWASTRESGVPSRFSGSGSGTDFTLTISSLQPEDFATYFCQQYWYWMYTFGQGTKVEIK | 4.88 | 0.000163 | 33300 |
| 5#4-Ras03 (antibody, part only; not given: RT22 heavy chain, constant regions, V domains shown, not shown: another chain or arm of the molecule; a dimerising Fc or GST; large carriers; small tags and cut ends, chain 1: disulfide bond Cys6-Cys17 closes the 5#4 cyclic peptide) VL: EHATNCTTRGDTFVVLCGLGMGSSSNDIQMTQSPSSLSASVGDRVTITCKSSQSLLNSRDGKNYLAWYQQKPGKAPKLLIYWASTRESGVPSRFSGSGSGTDFTLTISSLQPEDFATYFCQQYWYWMYTFGQGTKVEIK | 7.01 | 0.000158 | 22500 |

Target: human recombinant EpCAM antigen (extracellular domain, residues 1 to 265, fused with 6×His tag and Avi-tag) (human) (UniProt P16422)
Sequence (P16422 24-265 limits assumed, form in doubt): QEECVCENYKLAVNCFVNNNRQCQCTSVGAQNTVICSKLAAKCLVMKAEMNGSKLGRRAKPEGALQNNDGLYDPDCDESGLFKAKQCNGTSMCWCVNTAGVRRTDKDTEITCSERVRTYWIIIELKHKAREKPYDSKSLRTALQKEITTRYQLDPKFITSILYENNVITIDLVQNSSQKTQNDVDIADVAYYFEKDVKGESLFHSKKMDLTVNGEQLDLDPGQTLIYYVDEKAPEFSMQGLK
Test: SPR (Biacore 2000), EpCAM on CM5 chip (about 367 RU), antibody 6.25-100 nM as analyte

| Binder | Kd [nM] | kon [M⁻¹ s⁻¹] | koff [s⁻¹] |
| --- | --- | --- | --- |
| ep6-Ras03 (antibody, part only; not given: RT22 heavy chain, light constant, V domains shown, not shown: another chain or arm of the molecule; a dimerising Fc or GST, chain 1: disulfide bond Cys5-Cys10 closes the Ep6 cyclic peptide) VL: NNLRCIGNICWSMGSSSNDIQMTQSPSSLSASVGDRVTITCKSSQSLLNSRDGKNYLAWYQQKPGKAPKLLIYWASTRESGVPSRFSGSGSGTDFTLTISSLQPEDFATYFCQQYWYWMYTFGQGTKVEIK | 1.86 | 3.02e+06 |  |
| ep3-Ras03 (antibody, part only; not given: RT22 heavy chain, light constant, V domains shown, not shown: another chain or arm of the molecule; a dimerising Fc or GST, chain 1: disulfide bond Cys5-Cys10 closes the cyclic peptide) VL: ENLQCIGNLCWSMGSSSNDIQMTQSPSSLSASVGDRVTITCKSSQSLLNSRDGKNYLAWYQQKPGKAPKLLIYWASTRESGVPSRFSGSGSGTDFTLTISSLQPEDFATYFCQQYWYWMYTFGQGTKVEIK | 2.11 | 1.7e+06 | 0.0036 |
| ep4-Ras03 (antibody, part only; not given: RT22 heavy chain, light constant, V domains shown, not shown: another chain or arm of the molecule; a dimerising Fc or GST, chain 1: disulfide bond Cys5-Cys10 closes the cyclic peptide) VL: EHLHCLGSLCWSMGSSSNDIQMTQSPSSLSASVGDRVTITCKSSQSLLNSRDGKNYLAWYQQKPGKAPKLLIYWASTRESGVPSRFSGSGSGTDFTLTISSLQPEDFATYFCQQYWYWMYTFGQGTKVEIK | 12.4 | 728000 | 0.00905 |
| ep7-Ras03 (antibody, part only; not given: RT22 heavy chain, light constant, V domains shown, not shown: another chain or arm of the molecule; a dimerising Fc or GST, chain 1: disulfide bond Cys5-Cys10 closes the Ep7 cyclic peptide) VL: DNLRCIGNICWSMGSSSNDIQMTQSPSSLSASVGDRVTITCKSSQSLLNSRDGKNYLAWYQQKPGKAPKLLIYWASTRESGVPSRFSGSGSGTDFTLTISSLQPEDFATYFCQQYWYWMYTFGQGTKVEIK | 4.35 | 1.36e+06 |  |

Target: human recombinant EpCAM antigen (extracellular domain, residues 1 to 265, fused with 6×His tag and Avi-tag) (human) (UniProt P16422)
Test: SPR (Biacore 2000), EpCAM on CM5 chip (about 211 RU), antibody 6.25-100 nM as analyte

| Binder | Kd [nM] | koff [s⁻¹] | kon [M⁻¹ s⁻¹] |
| --- | --- | --- | --- |
| epRas03 (4-8) (antibody, part only; not given: RT22 heavy chain, light constant, V domains shown, not shown: another chain or arm of the molecule; a dimerising Fc or GST, chain 1: disulfide bond Cys5-Cys10 closes the cyclic peptide) VL: RNLLCIGNLCWPMGSSSNDIQMTQSPSSLSASVGDRVTITCKSSQSLLNSRDGKNYLAWYQQKPGKAPKLLIYWASTRESGVPSRFSGSGSGTDFTLTISSLQPEDFATYFCQQYWYWMYTFGQGTKVEIK | 3.04 | 0.00224 | 737000 |
| epRas03 (4-19) (antibody, part only; not given: RT22 heavy chain, light constant, V domains shown, not shown: another chain or arm of the molecule; a dimerising Fc or GST, chain 1: disulfide bond Cys5-Cys10 closes the cyclic peptide) VL: RNLRCIGNICWSMGSSSNDIQMTQSPSSLSASVGDRVTITCKSSQSLLNSRDGKNYLAWYQQKPGKAPKLLIYWASTRESGVPSRFSGSGSGTDFTLTISSLQPEDFATYFCQQYWYWMYTFGQGTKVEIK | 0.313 | 0.00168 | 5.38e+06 |
| epRas03 (4-14) (antibody, part only; not given: RT22 heavy chain, light constant, V domains shown, not shown: another chain or arm of the molecule; a dimerising Fc or GST, chain 1: disulfide bond Cys5-Cys10 closes the cyclic peptide) VL: RNLHCIGNLCWPMGSSSNDIQMTQSPSSLSASVGDRVTITCKSSQSLLNSRDGKNYLAWYQQKPGKAPKLLIYWASTRESGVPSRFSGSGSGTDFTLTISSLQPEDFATYFCQQYWYWMYTFGQGTKVEIK | 183 | 0.00205 | 11200 |
| epRas03 (4-12) (antibody, part only; not given: RT22 heavy chain, light constant, V domains shown, not shown: another chain or arm of the molecule; a dimerising Fc or GST, chain 1: disulfide bond Cys5-Cys10 closes the cyclic peptide) VL: RNLLCLRRICWPMGSSSNDIQMTQSPSSLSASVGDRVTITCKSSQSLLNSRDGKNYLAWYQQKPGKAPKLLIYWASTRESGVPSRFSGSGSGTDFTLTISSLQPEDFATYFCQQYWYWMYTFGQGTKVEIK | 17.7 | 0.00117 | 66400 |
| epRas03 (4-27) (antibody, part only; not given: RT22 heavy chain, light constant, V domains shown, not shown: another chain or arm of the molecule; a dimerising Fc or GST, chain 1: disulfide bond Cys5-Cys10 closes the cyclic peptide) VL: RHLWCLGRLCWPMGSSSNDIQMTQSPSSLSASVGDRVTITCKSSQSLLNSRDGKNYLAWYQQKPGKAPKLLIYWASTRESGVPSRFSGSGSGTDFTLTISSLQPEDFATYFCQQYWYWMYTFGQGTKVEIK | 9.94 | 0.00421 | 424000 |
| epRas03 (4-13) (antibody, part only; not given: RT22 heavy chain, light constant, V domains shown, not shown: another chain or arm of the molecule; a dimerising Fc or GST, chain 1: disulfide bond Cys5-Cys10 closes the cyclic peptide) VL: RNLQCIRNICWSMGSSSNDIQMTQSPSSLSASVGDRVTITCKSSQSLLNSRDGKNYLAWYQQKPGKAPKLLIYWASTRESGVPSRFSGSGSGTDFTLTISSLQPEDFATYFCQQYWYWMYTFGQGTKVEIK | 0.185 | 0.00105 | 5.69e+06 |

Target: human recombinant integrin αvβ6 (αv extracellular domain-acidic leucine zipper-His×6 with β6 extracellular domain-basic leucine zipper) (human) (UniProt P06756)
Sequence (P06756 other isoform, or with tags, fused parts or gaps, chain 1 of 2): as the sequence (P06756 other isoform, or with tags, fused parts or gaps, chain 1 of 2) above
Sequence (chain, as listed by the source, chain 2 of 2): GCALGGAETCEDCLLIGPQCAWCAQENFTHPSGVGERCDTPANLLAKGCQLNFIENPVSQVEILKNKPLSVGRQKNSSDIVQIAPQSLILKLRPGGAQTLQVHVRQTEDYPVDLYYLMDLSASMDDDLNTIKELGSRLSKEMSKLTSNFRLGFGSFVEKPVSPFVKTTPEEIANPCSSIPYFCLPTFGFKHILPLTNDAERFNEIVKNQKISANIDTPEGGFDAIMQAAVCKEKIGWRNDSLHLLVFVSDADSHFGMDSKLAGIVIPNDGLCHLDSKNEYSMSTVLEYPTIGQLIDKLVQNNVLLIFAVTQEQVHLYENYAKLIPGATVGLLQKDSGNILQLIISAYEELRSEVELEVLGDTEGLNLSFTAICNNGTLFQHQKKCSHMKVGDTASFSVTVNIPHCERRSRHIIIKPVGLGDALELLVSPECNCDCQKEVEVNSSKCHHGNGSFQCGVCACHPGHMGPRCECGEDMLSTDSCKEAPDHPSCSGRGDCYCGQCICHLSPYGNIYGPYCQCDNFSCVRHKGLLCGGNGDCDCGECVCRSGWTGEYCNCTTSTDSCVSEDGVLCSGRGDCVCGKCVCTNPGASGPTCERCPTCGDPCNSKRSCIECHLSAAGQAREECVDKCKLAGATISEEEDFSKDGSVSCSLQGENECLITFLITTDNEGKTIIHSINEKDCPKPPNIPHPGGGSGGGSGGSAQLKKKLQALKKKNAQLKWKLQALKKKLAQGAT
Test: BLI (Octet), antibody captured on anti-human IgG Fc (AHC) biosensor, integrin αvβ6 3.1-100 nM as analyte, divalent cations

| Binder | Kd [nM] | koff [s⁻¹] | kon [M⁻¹ s⁻¹] |
| --- | --- | --- | --- |
| 6#2-Ras03 (antibody, part only; not given: RT22 heavy chain, constant regions, V domains shown, not shown: another chain or arm of the molecule; a dimerising Fc or GST; large carriers; small tags and cut ends, chain 1: disulfide bond Cys6-Cys16 closes the 6#2 cyclic peptide) VL: HVEFPCTRRGDLFVLCEGSMGSSSNDIQMTQSPSSLSASVGDRVTITCKSSQSLLNSRDGKNYLAWYQQKPGKAPKLLIYWASTRESGVPSRFSGSGSGTDFTLTISSLQPEDFATYFCQQYWYWMYTFGQGTKVEIK | 0.722 | 0.000153 | 212000 |
| in4-Ras03 (antibody, part only; not given: RT22 heavy chain, light constant, V domains shown, not shown: another chain or arm of the molecule; a dimerising Fc or GST, chain 1: disulfide bond Cys6-Cys10 closes the in4 cyclic peptide) VL: DGVRQCRGDCFDGPLMGSSSNDIQMTQSPSSLSASVGDRVTITCKSSQSLLNSRDGKNYLAWYQQKPGKAPKLLIYWASTRESGVPSRFSGSGSGTDFTLTISSLQPEDFATYFCQQYWYWMYTFGQGTKVEIK | 12.1 | 0.00703 | 583000 |
| SFITGv6-Ras03 (antibody, part only; not given: RT22 heavy chain, constant regions, V domains shown, not shown: another chain or arm of the molecule; a dimerising Fc or GST; large carriers; small tags and cut ends, chain 1: disulfide bond Cys3-Cys13 closes the SFITGv6 cyclic peptide) VL: GRCTFRGDLMQLCYPDMGSSSNDIQMTQSPSSLSASVGDRVTITCKSSQSLLNSRDGKNYLAWYQQKPGKAPKLLIYWASTRESGVPSRFSGSGSGTDFTLTISSLQPEDFATYFCQQYWYWMYTFGQGTKVEIK | 0.457 | 0.000128 | 279000 |
| 6#4-Ras03 (antibody, part only; not given: RT22 heavy chain, light constant, V domains shown, not shown: another chain or arm of the molecule; a dimerising Fc or GST, chain 1: disulfide bond Cys6-Cys16 closes the cyclic peptide) VL: ESFRPCQYRGDLFVLCFPSDMGSSSNDIQMTQSPSSLSASVGDRVTITCKSSQSLLNSRDGKNYLAWYQQKPGKAPKLLIYWASTRESGVPSRFSGSGSGTDFTLTISSLQPEDFATYFCQQYWYWMYTFGQGTKVEIK | 1.52 | 0.000265 | 175000 |
| 6#8-Ras03 (antibody, part only; not given: RT22 heavy chain, light constant, V domains shown, not shown: another chain or arm of the molecule; a dimerising Fc or GST, chain 1: disulfide bond Cys6-Cys16 closes the cyclic peptide) VL: FPNNQCQHRGDLFALCADMGSSSNDIQMTQSPSSLSASVGDRVTITCKSSQSLLNSRDGKNYLAWYQQKPGKAPKLLIYWASTRESGVPSRFSGSGSGTDFTLTISSLQPEDFATYFCQQYWYWMYTFGQGTKVEIK | 0.952 | 0.000175 | 184000 |
